Our source for the Kd values is publication PMC12847411, “High-affinity optimization potential of the virus neutralizing antibody with twin cysteine-stabilized complementarity-determining region 3” (Frontiers in Cellular and Infection Microbiology, 2025).

What is called Kd is a measure of binding affinity in units of concentration.

The chains are these.
B1: AZD8895-450 (antibody, V domains shown)
VH: QMQLVQSGPEVKKPGTSVKVSCKASGFTFMSSAVQWVRQARGQRLEWIGWIVIGSGNTNYAQKFQERVTITRDMSTSTAYMELSSLRSEDTAVYYCAANYCSSTICSDGMDIWGQGTMVTVSS
VL: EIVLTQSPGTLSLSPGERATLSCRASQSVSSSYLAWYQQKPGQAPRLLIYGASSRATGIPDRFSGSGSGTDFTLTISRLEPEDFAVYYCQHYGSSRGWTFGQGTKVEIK
B2: AZD8895-275 (antibody, V domains shown)
VH: QMQLVQSGPEVKKPGTSVKVSCKASGFTFMSSAVQWVRQARGQRLEWIGWIVIGSGNTNYAQKFQERVTITRDMSTSTAYMELSSLRSEDTAVYYCAAPYCSLTYCSDGFDIWGQGTMVTVSS
VL: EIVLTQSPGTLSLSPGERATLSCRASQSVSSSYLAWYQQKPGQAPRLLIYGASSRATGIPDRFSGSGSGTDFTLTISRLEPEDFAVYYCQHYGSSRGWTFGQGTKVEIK
B3: AZD8895-449 (antibody, V domains shown)
VH: QMQLVQSGPEVKKPGTSVKVSCKASGFTFMSSAVQWVRQARGQRLEWIGWIVIGSGNTNYAQKFQERVTITRDMSTSTAYMELSSLRSEDTAVYYCAAPYCSLTNCSDGFDIWGQGTMVTVSS
VL: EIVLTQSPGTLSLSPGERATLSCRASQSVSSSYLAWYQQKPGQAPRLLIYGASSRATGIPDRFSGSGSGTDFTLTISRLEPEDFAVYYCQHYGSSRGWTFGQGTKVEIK
B4: AZD8895 (antibody, V domains shown)
VH: QMQLVQSGPEVKKPGTSVKVSCKASGFTFMSSAVQWVRQARGQRLEWIGWIVIGSGNTNYAQKFQERVTITRDMSTSTAYMELSSLRSEDTAVYYCAAPYCSSISCNDGFDIWGQGTMVTVSS
VL: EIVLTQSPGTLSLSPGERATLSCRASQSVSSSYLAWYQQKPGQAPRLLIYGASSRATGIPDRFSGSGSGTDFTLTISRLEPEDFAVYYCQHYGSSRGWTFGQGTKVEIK
notes: also called seed antibody AZD8895; seed mAb; source: HEK293, transient transfection, purified (HiTrap Protein A HP)
B5: AZD8895-25 (antibody, V domains shown)
VH: QMQLVQSGPEVKKPGTSVKVSCKASGFTFMSSAVQWVRQARGQRLEWIGWIVIGSGNTNYAQKFQERVTITRDMSTSTAYMELSSLRSEDTAVYYCAAPYCSLTCCSDGFDIWGQGTMVTVSS
VL: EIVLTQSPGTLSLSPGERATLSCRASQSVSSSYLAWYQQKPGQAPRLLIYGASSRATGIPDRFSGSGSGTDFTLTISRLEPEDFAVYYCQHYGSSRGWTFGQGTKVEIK

For the experiment, the target named is recombinant Fc-fused SARS-CoV-2 RBD protein (Severe acute respiratory syndrome …, UniProt P0DTC2). The experiment in a line: SPR. As to conditions: both partners purified.
In the case of B1, the dissociation constant (Kd) came to 16.5 nM.

On to B2, for which the Kd amounted to 8.42 nM.

Turning to B3, the Kd came out at 13.2 nM.

With B4, the Kd was determined as 12.6 nM.

B5: the equilibrium dissociation constant (Kd) came out at 4.79 nM.
